Test results as given in patent publication US12319742 (SHATTUCK LABS, dated 2025).

T1: biotinylated recombinant human TNFRSF25-His tagged (Acro #TN5-H52H3) (human, UniProt Q93038 25-199, biotinylated)
T1 construct: treated as the same protein; also called recombinant biotin-conjugated human TNFRSF25 protein; DR3
T1 sequence (looked up): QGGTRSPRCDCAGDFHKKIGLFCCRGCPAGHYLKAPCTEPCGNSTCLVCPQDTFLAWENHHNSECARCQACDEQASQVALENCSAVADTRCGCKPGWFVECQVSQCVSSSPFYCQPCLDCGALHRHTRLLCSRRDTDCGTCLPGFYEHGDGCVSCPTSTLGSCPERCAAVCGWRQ

B1: SL-061_YTE (antibody, human IgG1, kappa)
heavy: QVQLQQSGPGLVKPSQTLSLTCAISGDSVSGYSAAWNWIRQSPSRGLEWLGRTYYRSKWYNDYAVSVKSRITINPDTSKNQFSLQLNSVTPEDTAVYYCARDYYGSESYYNRGYYYYGMDVWGQGTTVTVSSASTKGPSVFPLAPSSKSTSGGTAALGCLVKDYFPEPVTVSWNSGALTSGVHTFPAVLQSSGLYSLSSVVTVPSSSLGTQTYICNVNHKPSNTKVDKKVEPKSCDKTHTCPPCPAPEAAGAPSVFLFPPKPKDTLYITREPEVTCVVVDVSHEDPEVKFNWYVDGVEVHNAKTKPREEQYNSTYRVVSVLTVLHQDWLNGKEYKCKVSNKALPAPIEKTISKAKGQPREPQVYTLPPSREEMTKNQVSLTCLVKGFYPSDIAVEWESNGQPENNYKTTPPVLDSDGSFFLYSKLTVDKSRWQQGNVFSCSVMHEALHNHYTQKSLSLSPGK
light: AIQLTQSPSSLSASVGDRVTITCRASPGISSALAWYQQKPGKAPKLLMYDESSQESGVPSRFSGSGSGTDFTLTISSLQPEDFATYYCQQFNDYPLTFGGGTKVEIKRTVAAPSVFIFPPSDEQLKSGTASVVCLLNNFYPREAKVQWKVDNALQSGNSQESVTEQDSKDSTYSLSSTLTLSKADYEKHKVYACEVTHQGLSSPVTKSFNRGEC
notes: SL-061 with YTE half-life extension changes in the Fc
B2: NH24-162 (scFv, not shown: small tags and cut ends)
scFv: EVQLVESGGGSVQPGGSLRLSCAASGFTFSSYGMSWVRQAPGKGLEWISYISSSGGHTYYADSVKGQFTISRDNAKNSLYLQMNSLRAEDTAVYYCARGSGSFDYWGQGTLVTVSSGGRGSGGGGSGSGGSDIVMTQSPSSLSASVGDRVTITCQASQDISNYLSWYQQKPGKAPKLLISDASNLETGVPSRFSGSGSGTDFTFTISSLQPEDIATYYCQQYDNLPITFGQGTRLEIKR
notes: one of the four variants of group m25; used as unpurified E. coli supernatant; the sheet prints NH24-162; also called NH24-162 scFv

Legend:
[1] = molecular target: T2, biotinylated recombinant human FcRn-His tagged protein (Acro #FCM-H82W7) (human, UniProt P55899 24-297; P61769 21-119, biotinylated); assay: BLI/Octet; biotinylated human FcRn-His on streptavidin biosensor
T2 construct: also called hFcRn; neonatal Fc receptor
Experimental: (§1) Figure 5D: FIG. 5D. FcRn binding kinetics by anti-TNFRSF25 antibodies. BLI assay was performed using the Octet Red 96e instrument. Streptavidin biosensors were loaded with biotinylated recombinant human(h) FcRn-His tagged protein (Acro #FCM-H82W7) as the ligand. During the association phase, biosensors were incubated with anti-DR3 candidate antibodies at various concentrations for 600 seconds, followed by a 600-second dissociation phase.
(§2) To detect binding of certain whole antibodies to the neonatal Fc receptor (FcRn) at neutral and acidic pH conditions, streptavidin biosensors were loaded with biotinylated recombinant human FcRn-His tagged protein (Acro #FCM-H82W7) as the ligand. During the association phase, biosensors were incubated with anti-TNFRSF25 antibodies at various concentrations for 600 seconds, followed by a 600 second dissociation phase.

[2] = molecular target: T1, biotinylated recombinant human …; assay: MSD competition (lower panel); antibody on TNFRSF25-coated plate, wash, then TL1A-rabbit Fc at 0.4 ug/ml, sulfo-tag anti-rabbit detection; raw MSD signal
Experimental: Figure 6: FIG. 6. […] Human TNFRSF25 was precoated on MSD assay plates followed by incubating with various concentrations of anti-TNFRSF25 antibodies.

[3] = molecular target: T2, biotinylated recombinant human FcRn-His …; assay: BLI/Octet; biotinylated human FcRn-His on streptavidin biosensor; pH 7.4
Experimental: as §1, §2

[4] = molecular target: T2, biotinylated recombinant human FcRn-His …; assay: BLI/Octet; biotinylated human FcRn-His on streptavidin biosensor; pH 6.0
Experimental: as §1, §2

[5] = molecular target: T1, biotinylated recombinant human …; assay: MSD plate binding; TNFRSF25 precoated, unpurified scFv supernatant in 2-fold serial dilutions, detection of the C-terminal myc tag
From the text: (FIG. 2A) TNFRSF25 was precoated on MSD assay plates followed by adding scFv supernatant at 2-fold serial-dilutions followed by detection of the myc tag present on the C-terminus of the scFv's. (FIG. 2B) scFv supernatant were serially diluted and added to an MSD-plate pre-coated with TNFRSF25.

| fold improvement in binding affinity at pH 6.0 compared to pH 7.4 [1] [fold] | IC50 (read off the curve) [2] [nM] | Kd [3] [nM] | koff [3] [s⁻¹] | kon [3] [M⁻¹ s⁻¹] | Kd [4] [nM] | koff [4] [s⁻¹] | kon [4] [M⁻¹ s⁻¹] | binding result [5] | Binder |
| --- | --- | --- | --- | --- | --- | --- | --- | --- | --- |
| ~10 | ~0.07 | 8.08 | 0.00179 | 222000 | 0.966 | 0.000193 | 200000 |  | B1 |
|  |  |  |  |  |  |  |  | binds | B2 |
